Data reported in patent US20070218502A1 (Scripps Research, published 2007).
Ends that are not written are not given here.

What was measured:
[1] = molecular target: T1, peptide tag (SEQ ID NO:16), unlabeled synthetic peptide (C-terminal amide); test: equilibrium fluorescence anisotropy titration, 12.52 nM labeled peptide, 0.1x PBS, 25° C., 1:1 binding fit
T1 construct: Short peptide tag derived from the leucine zipper of the GCN4 transcription factor; also called protein tag peptide; unlabeled peptide
T1 peptide: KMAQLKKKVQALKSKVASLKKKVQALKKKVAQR

[2] = molecular target: T1, peptide tag (SEQ ID NO:16), unlabeled …; test: equilibrium fluorescence titration
[3] = molecular target: T2, human high affinity IgE receptor (FcεRI) α-chain with the NOVA-2 peptide tag at the C-terminus, expressed in … (human, UniProt P12319 26-257); test: fluorescence imaging in live Cos-7 cells after microinjection
T2 construct: whole, on cells; Retained in the endoplasmic reticulum membrane of the cells; also called peptide-tagged FcεRI α-chain; NOVA2-tagged α-chain
T2 sequence: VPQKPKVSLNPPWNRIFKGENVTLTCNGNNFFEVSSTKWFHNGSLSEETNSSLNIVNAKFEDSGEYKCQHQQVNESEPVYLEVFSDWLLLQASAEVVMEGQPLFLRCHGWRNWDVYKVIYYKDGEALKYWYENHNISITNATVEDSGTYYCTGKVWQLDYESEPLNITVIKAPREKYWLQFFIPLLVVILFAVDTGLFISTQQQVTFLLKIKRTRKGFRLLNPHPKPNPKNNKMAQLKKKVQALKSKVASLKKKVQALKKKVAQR

[4] = molecular target: T3, cdc42-GTPγS (recombinant 6His-tagged cdc42 loaded with GTPγS) (UniProt P60953 1-191, limits assumed); test: fluorescence of mero-CBD with saturating cdc42-GTPγS
T3 construct: not shown: 6His tag

[5] = molecular target: T4, RhoA-GTPγS (recombinant 6His-tagged RhoA pre-equilibrated with GTPγS) (UniProt P61586 1-193, limits assumed); test: fluorescence of mero-CBD in solution
T4 construct: not shown: 6His tag

[6] = molecular target: T3, cdc42-GTPγS (recombinant 6His-tagged …); test: fluorescence of dye-labeled CBD in solution

T3 sequence (P60953 whole entry): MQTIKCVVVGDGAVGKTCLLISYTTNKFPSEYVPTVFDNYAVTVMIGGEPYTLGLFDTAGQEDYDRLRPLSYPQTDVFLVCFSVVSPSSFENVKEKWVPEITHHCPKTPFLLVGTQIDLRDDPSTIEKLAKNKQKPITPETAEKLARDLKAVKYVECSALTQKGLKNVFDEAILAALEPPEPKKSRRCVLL
T4 sequence (P61586 whole entry): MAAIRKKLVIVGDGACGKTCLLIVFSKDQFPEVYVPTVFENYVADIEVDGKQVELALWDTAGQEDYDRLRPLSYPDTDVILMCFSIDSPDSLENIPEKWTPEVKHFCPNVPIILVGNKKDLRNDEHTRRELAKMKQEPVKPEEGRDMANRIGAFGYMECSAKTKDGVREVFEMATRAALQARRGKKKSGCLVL

B1: tetramethylrhodamine-labeled leucine zipper peptide (SEQ ID NO:15) with YGRKKRRNRRRP (SEQ ID NO:17) appended to the N-terminus, as used in the in vitro … (peptide)
peptide: YGRKKRRNRRRPCEMAQLEKEVQALESEVASLEKEVQALEKEVAQR-NH2
modifications: not fully specified
notes: Peptide derived from the GCN4 leucine zipper; also called labeled peptide; TMRPep
Kd [1]: 5.4 nM
Kd [2]: 5 nM

B2: rhodamine-labeled peptide (SEQ ID NO:15, tetramethylrhodamine on Lys 21), as microinjected into cells (peptide)
peptide: CEMAQLEKEVQALESEVASLEKEVQALEKEVAQR-NH2
modifications: also: tetramethylrhodamine on Lys stated as position 21, which does not match a Lys in the given chain
notes: also called rhodamine peptide biosensor; rhodamine-peptide
binding result [3]: binds

B3: mero-CBD-F271C conjugate (Cdc42-binding fragment of human WASP, amino acids 201 to 321, F271C, labeled with merocyanine dye) (other)
chain: DIQNPDITSSRYRGLPAPGPSPADKKRSGKKKISKADIGAPSGFKHVSHVGWDPQNGFDVNNLDPDLRSLCSRAGISEAQLTDAETSKLIYDFIEDQGGLEAVRQEMRRQEPLPPPPPPSR
modifications: merocyanine dye of FIG. 11 on Cys 271 (WASP numbering)
notes: that entry has 120 residues and ends at WASP 320; also called CBD-A4C; CBD biosensor; not shown: C-terminal 6His tag from pET23a
fold increase in excitation and emission maxima [4]: ~3.5 fold
binding result [5]: no binding
fold fluorescence change on binding [6]: ~3.5 fold
